Substrate in the series: CC[C@H](C)[C@H](NC(=O)[C@H](CCCNC(=N)N)NC(=O)CNC(=O)[C@@H](N)CO)C(=O)NCC(=O)N[C@@H](Cc1ccccc1)C(=O)N[C@@H](CC(C)C)C(=O)N[C@@H](CCCNC(=N)N)C(=O)N[C@H](C(=O)N[C@@H](C)C(=O)O)[C@@H](C)O
The series is described as follows: Ratio of kcat/km for MMP9 assessed as drug cleavage.

B1: Matrix metalloproteinase-9 (Homo sapiens), P14780 (protein)
chain: MSLWQPLVLVLLVLGCCFAAPRQRQSTLVLFPGDLRTNLTDRQLAEEYLYRYGYTRVAEMRGESKSLGPALLLLQKQLSLPETGELDSATLKAMRTPRCGVPDLGRFQTFEGDLKWHHHNITYWIQNYSEDLPRAVIDDAFARAFALWSAVTPLTFTRVYSRDADIVIQFGVAEHGDGYPFDGKDGLLAHAFPPGPGIQGDAHFDDDELWSLGKGVVVPTRFGNADGAACHFPFIFEGRSYSACTTDGRSDGLPWCSTTANYDTDDRFGFCPSERLYTQDGNADGKPCQFPFIFQGQSYSACTTDGRSDGYRWCATTANYDRDKLFGFCPTRADSTVMGGNSAGELCVFPFTFLGKEYSTCTSEGRGDGRLWCATTSNFDSDKKWGFCPDQGYSLFLVAAHEFGHALGLDHSSVPEALMYPMYRFTEGPPLHKDDVNGIRHLYGPRPEPEPRPPTTTTPQPTAPPTVCPTGPPTVHPSERPTAGPTGPPSAGPTGPPTAGPSTATTVPLSPVDDACNVNIFDAIAEIGNQLYLFKDGKYWRFSEGRGSRPQGPFLIADKWPALPRKLDSVFEERLSKKLFFFSGRQVWVYTGASVLGPRRLDKLGLGADVAQVTGALRSGRGKMLLFSGRRLWRFDVKAQMVDPRSASEVDRMFPGVPLDTHDVFQYREKAYFCQDRFYWRVSSRSELNQVDQVGYVTYDILQCPED
B1: the kcat/Km turned out to be 20000 M⁻¹ s⁻¹.

Usually kcat/Km stands for the second-order rate constant that governs catalysis at low substrate concentration.

For the origin of these results see ChEMBL document CHEMBL1140886, “Development of an optimized activatable MMP-14 targeted SPECT imaging probe” (Bioorg Med Chem, 2009).
